Results reported in US20210246204A1 (Alector, published 2021).

Biological target: human Siglec-7 on primary human monocyte-derived dendritic cells (human, UniProt Q9Y286 19-467)
Test: cell-based or functional assay

Chain of human Siglec-7 on primary human monocyte-derived dendritic cells (Q9Y286 19-467): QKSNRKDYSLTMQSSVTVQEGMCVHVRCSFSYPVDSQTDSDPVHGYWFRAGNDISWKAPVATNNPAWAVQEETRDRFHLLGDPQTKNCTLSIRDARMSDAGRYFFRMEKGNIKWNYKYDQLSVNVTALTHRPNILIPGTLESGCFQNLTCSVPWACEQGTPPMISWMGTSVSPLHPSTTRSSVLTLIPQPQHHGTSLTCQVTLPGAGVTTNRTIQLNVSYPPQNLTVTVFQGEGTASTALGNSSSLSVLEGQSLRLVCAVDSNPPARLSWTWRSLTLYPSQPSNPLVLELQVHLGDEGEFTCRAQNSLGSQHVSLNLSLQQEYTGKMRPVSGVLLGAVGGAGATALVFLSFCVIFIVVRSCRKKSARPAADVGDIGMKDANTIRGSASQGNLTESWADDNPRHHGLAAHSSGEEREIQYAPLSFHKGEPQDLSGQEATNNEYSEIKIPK

Binder	Fold increase in potency compared to AB-H8 [fold]	Fold increase in potency compared to Chimeric Ab [fold]	Maximal downregulation (% Siglec-7 remaining) [%]	Receptor downregulation, (EC50) (pM)
S7AB-H8.9.1 (antibody, V domains shown) VH: QVQLVQSGAEVKKPGASVKVSCKASGYAFTAAWMNWVRQAPGQRLEWIGRIFPGLGHTNYAQKFQGRATLTEDTSTSTAYMELSSLRSEDTAVYYCARDYSDYYFDYWGQGTLVTVSS VL: DIQMTQSPSSLSASVGDRVTITCRGSQDINTYLNWYQQKPGKAPKLLIYYTSRLHSGVPSRFSGSGSGTDYTLTISSLQPEDFATYYCQQGNTKPWTFGQGTKLEIK	3.5	10.5	4.3	103
S7AB-H8.10.2 (antibody, V domains shown) VH: QVQLVQSGAEVKKPGASVKVSCKASGYAFTEAWMNWVRQARGQRLEWIGRIFPGYGHTNYAQKFQGRATLTEDTSTSTAYMELSSLRSEDTAVYYCARDYSDYYFDYWGQGTLVTVSS VL: DIQMTQSPSSLSASVGDRVTITCRGSQDINTYLNWYQQKPGKAPKLLIYYTSRLHSGVPSRFSGSGSGTDYTLTISSLQPEDFATYYCQQGNTKPWTFGQGTKLEIK	2.1	6.4	12.1	169
S7AB-H8.35.2 (antibody, V domains shown) VH: QVQLVQSGAEVKKPGASVKVSCKASGYAFTEAWMNWVRQARGQRLEWIGRIFPGYGHTNYAQKFQGRATLTEDTSTSTAYMELSSLRSEDTAVYYCARDYSDYYFDYWGQGTLVTVSS VL: DIQMTQSPSSLSASVGDRVTITCRGSQDINTYLNWYQQKPGKAPKLLIYYTSRLHSGVPSRFSGSGSGTDYTLTISSLQPEDFATYYCQQGGTLPWTFGQGTKLEIK	1.8	5.3	10.8	205
S7AB-H8.44.2 (antibody, V domains shown) VH: QVQLVQSGAEVKKPGASVKVSCKASGYAFTAAWMNWVRQARGQRLEWIGRIFPGLGHTNYAQKFQGRATLTEDTSTSTAYMELSSLRSEDTAVYYCARDYSDYYFDYWGQGTLVTVSS VL: DIQMTQSPSSLSASVGDRVTITCRGSQDINTYLNWYQQKPGKAPKLLIYYTSRLHSGVPSRFSGSGSGTDYTLTISSLQPEDFATYYCQQGNILPWTFGQGTKLEIK	4.7	14.1	3.3	76.7
S7AB-H8.30.2 (antibody, V domains shown) VH: QVQLVQSGAEVKKPGASVKVSCKASGYAFTEAWMNWVRQARGQRLEWIGRIFPGYGHTNYAQKFQGRATLTEDTSTSTAYMELSSLRSEDTAVYYCARDYSDYYFDYWGQGTLVTVSS VL: DIQMTQSPSSLSASVGDRVTITCRASQDANTYLNWYQQKPGKAPKLLIYYTSRLHSGVPSRFSGSGSGTDYTLTISSLQPEDFATYYCQQGNLLPWTFGQGTKLEIK	3.2	9.4	10.1	115
S7AB-H8.45.1 (antibody, V domains shown) VH: QVQLVQSGAEVKKPGASVKVSCKASGYAFTEAWMNWVRQAPGQRLEWIGRIFPGYGHTNYAQKFQGRATLTEDTSTSTAYMELSSLRSEDTAVYYCARDYSDYYFDYWGQGTLVTVSS VL: DIQMTQSPSSLSASVGDRVTITCRGSQDINTYLNWYQQKPGKAPKLLIYYTSRLHSGVPSRFSGSGSGTDYTLTISSLQPEDFATYYCQQGNILPWTFGQGTKLEIK	3.7	11.2	7.8	97
S7AB-H8.9.2 (antibody, V domains shown) VH: QVQLVQSGAEVKKPGASVKVSCKASGYAFTAAWMNWVRQARGQRLEWIGRIFPGLGHTNYAQKFQGRATLTEDTSTSTAYMELSSLRSEDTAVYYCARDYSDYYFDYWGQGTLVTVSS VL: DIQMTQSPSSLSASVGDRVTITCRGSQDINTYLNWYQQKPGKAPKLLIYYTSRLHSGVPSRFSGSGSGTDYTLTISSLQPEDFATYYCQQGNTKPWTFGQGTKLEIK	3.1	9.2	4.5	118
S7AB-H8.29.1 (antibody, V domains shown) VH: QVQLVQSGAEVKKPGASVKVSCKASGYAFTAAWMNWVRQAPGQRLEWIGRIFPGLGHTNYAQKFQGRATLTEDTSTSTAYMELSSLRSEDTAVYYCARDYSDYYFDYWGQGTLVTVSS VL: DIQMTQSPSSLSASVGDRVTITCRASQDANTYLNWYQQKPGKAPKLLIYYTSRLHSGVPSRFSGSGSGTDYTLTISSLQPEDFATYYCQQGNLLPWTFGQGTKLEIK	6.8	20.4	5.3	53.2
S7AB-H8.35.1 (antibody, V domains shown) VH: QVQLVQSGAEVKKPGASVKVSCKASGYAFTEAWMNWVRQAPGQRLEWIGRIFPGYGHTNYAQKFQGRATLTEDTSTSTAYMELSSLRSEDTAVYYCARDYSDYYFDYWGQGTLVTVSS VL: DIQMTQSPSSLSASVGDRVTITCRGSQDINTYLNWYQQKPGKAPKLLIYYTSRLHSGVPSRFSGSGSGTDYTLTISSLQPEDFATYYCQQGGTLPWTFGQGTKLEIK	2	5.9	10.5	184
S7AB-H8.10.1 (antibody, V domains shown) VH: QVQLVQSGAEVKKPGASVKVSCKASGYAFTEAWMNWVRQAPGQRLEWIGRIFPGYGHTNYAQKFQGRATLTEDTSTSTAYMELSSLRSEDTAVYYCARDYSDYYFDYWGQGTLVTVSS VL: DIQMTQSPSSLSASVGDRVTITCRGSQDINTYLNWYQQKPGKAPKLLIYYTSRLHSGVPSRFSGSGSGTDYTLTISSLQPEDFATYYCQQGNTKPWTFGQGTKLEIK	2.4	7	10.7	154
S7AB-H8.29.2 (antibody, V domains shown) VH: QVQLVQSGAEVKKPGASVKVSCKASGYAFTAAWMNWVRQARGQRLEWIGRIFPGLGHTNYAQKFQGRATLTEDTSTSTAYMELSSLRSEDTAVYYCARDYSDYYFDYWGQGTLVTVSS VL: DIQMTQSPSSLSASVGDRVTITCRASQDANTYLNWYQQKPGKAPKLLIYYTSRLHSGVPSRFSGSGSGTDYTLTISSLQPEDFATYYCQQGNLLPWTFGQGTKLEIK	4.1	12.2	4.9	88.9
S7AB-H8.34.2 (antibody, V domains shown) VH: QVQLVQSGAEVKKPGASVKVSCKASGYAFTAAWMNWVRQARGQRLEWIGRIFPGLGHTNYAQKFQGRATLTEDTSTSTAYMELSSLRSEDTAVYYCARDYSDYYFDYWGQGTLVTVSS VL: DIQMTQSPSSLSASVGDRVTITCRGSQDINTYLNWYQQKPGKAPKLLIYYTSRLHSGVPSRFSGSGSGTDYTLTISSLQPEDFATYYCQQGGTLPWTFGQGTKLEIK	3.3	9.9	5.4	110
S7AB-H8.44.1 (antibody, V domains shown) VH: QVQLVQSGAEVKKPGASVKVSCKASGYAFTAAWMNWVRQAPGQRLEWIGRIFPGLGHTNYAQKFQGRATLTEDTSTSTAYMELSSLRSEDTAVYYCARDYSDYYFDYWGQGTLVTVSS VL: DIQMTQSPSSLSASVGDRVTITCRGSQDINTYLNWYQQKPGKAPKLLIYYTSRLHSGVPSRFSGSGSGTDYTLTISSLQPEDFATYYCQQGNILPWTFGQGTKLEIK	4.9	14.7	4.1	73.9
S7AB-H8.30.1 (antibody, V domains shown) VH: QVQLVQSGAEVKKPGASVKVSCKASGYAFTEAWMNWVRQAPGQRLEWIGRIFPGYGHTNYAQKFQGRATLTEDTSTSTAYMELSSLRSEDTAVYYCARDYSDYYFDYWGQGTLVTVSS VL: DIQMTQSPSSLSASVGDRVTITCRASQDANTYLNWYQQKPGKAPKLLIYYTSRLHSGVPSRFSGSGSGTDYTLTISSLQPEDFATYYCQQGNLLPWTFGQGTKLEIK	2.7	8.1	11.3	134
S7AB-H8.34.1 (antibody, V domains shown) VH: QVQLVQSGAEVKKPGASVKVSCKASGYAFTAAWMNWVRQAPGQRLEWIGRIFPGLGHTNYAQKFQGRATLTEDTSTSTAYMELSSLRSEDTAVYYCARDYSDYYFDYWGQGTLVTVSS VL: DIQMTQSPSSLSASVGDRVTITCRGSQDINTYLNWYQQKPGKAPKLLIYYTSRLHSGVPSRFSGSGSGTDYTLTISSLQPEDFATYYCQQGGTLPWTFGQGTKLEIK	3.6	10.9	4.4	99.5
